What was measured:
[1] = target: recombinant human insulin-regulated aminopeptidase (IRAP), secreted soluble form (human) (UniProt Q9UIQ6); experiment: native gel or EMSA
[2] = target: recombinant human insulin-regulated aminopeptidase (IRAP), secreted soluble form (human) (UniProt Q9UIQ6); experiment: SEC
[3] = target: recombinant human insulin-regulated aminopeptidase (IRAP), secreted soluble form (human) (UniProt Q9UIQ6); experiment: enzyme inhibition assay

stoichiometry N [1] | stoichiometry N [2] | Ki [3] [nM] | Molecule
2 | 2 | – | recombinant human insulin-regulated aminopeptidase (IRAP), secreted soluble form (from UniProt Q9UIQ6 155-1025) (enzyme)
– | – | 98 | VYPWT [peptide inhibitor VYPWT]
